For this data set, the target named is T1, mTLR9-cECD (C-terminal proteolytic fragment of TLR9 ectodomain) (Mus musculus, UniProt Q9EQU3 474-824).
T1 sequence: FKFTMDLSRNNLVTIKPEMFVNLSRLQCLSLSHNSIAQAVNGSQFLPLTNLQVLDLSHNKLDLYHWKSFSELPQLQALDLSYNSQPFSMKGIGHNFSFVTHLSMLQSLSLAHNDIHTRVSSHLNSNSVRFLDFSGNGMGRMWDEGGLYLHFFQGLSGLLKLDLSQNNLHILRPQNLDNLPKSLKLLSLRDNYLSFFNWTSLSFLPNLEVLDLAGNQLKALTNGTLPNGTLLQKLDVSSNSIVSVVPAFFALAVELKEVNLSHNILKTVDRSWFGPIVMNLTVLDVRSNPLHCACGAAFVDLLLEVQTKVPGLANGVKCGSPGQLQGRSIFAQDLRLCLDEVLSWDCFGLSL
The experiment in a line: fluorescence anisotropy; 20 mM MES pH 5.6, 100 mM NaCl, 2 mM beta-mercaptoethanol, 25 C, 0.2 uM labelled R:D60, protein 10 nM-3.0 uM, 10 min equilibration.

B1: R:D60 (Cy3) (DNA:RNA)
RNA: GUGUGUGUGUGUGUGUGUGUGUGUGUGUGUGUGUGUGUGUGUGUGUGUGUGUGUGUGUGU
?: ACACACACACACACACACACACACACACACACACACACACACACACACACACACACACAC
What is called Kd is the constant that tells how readily two partners part at equilibrium. High values mean a looser complex, low ones a tighter complex. The molecule B1 returned a Kd of 27.2 nM.

B2: Cy5-ssDNA60 (ssDNA)
DNA: ACACACACACACACACACACACACACACACACACACACACACACACACACACACACACAC
Molecule B2 had a Kd of 142 nM.

B3: Cy3-ssRNA60 (ssRNA)
RNA: GUGUGUGUGUGUGUGUGUGUGUGUGUGUGUGUGUGUGUGUGUGUGUGUGUGUGUGUGUGU
As to B3, the Kd stood at 1080 nM.
